Measured values reported in the supplement of paper PMC6379048.

How the values were obtained:
Test in all cases: EC50 of free RNA motif oligo competing protein binding to immobilised probe
DHX36 = target: T1, DHX36 (UniProt Q9H2U1)
T1 sequence: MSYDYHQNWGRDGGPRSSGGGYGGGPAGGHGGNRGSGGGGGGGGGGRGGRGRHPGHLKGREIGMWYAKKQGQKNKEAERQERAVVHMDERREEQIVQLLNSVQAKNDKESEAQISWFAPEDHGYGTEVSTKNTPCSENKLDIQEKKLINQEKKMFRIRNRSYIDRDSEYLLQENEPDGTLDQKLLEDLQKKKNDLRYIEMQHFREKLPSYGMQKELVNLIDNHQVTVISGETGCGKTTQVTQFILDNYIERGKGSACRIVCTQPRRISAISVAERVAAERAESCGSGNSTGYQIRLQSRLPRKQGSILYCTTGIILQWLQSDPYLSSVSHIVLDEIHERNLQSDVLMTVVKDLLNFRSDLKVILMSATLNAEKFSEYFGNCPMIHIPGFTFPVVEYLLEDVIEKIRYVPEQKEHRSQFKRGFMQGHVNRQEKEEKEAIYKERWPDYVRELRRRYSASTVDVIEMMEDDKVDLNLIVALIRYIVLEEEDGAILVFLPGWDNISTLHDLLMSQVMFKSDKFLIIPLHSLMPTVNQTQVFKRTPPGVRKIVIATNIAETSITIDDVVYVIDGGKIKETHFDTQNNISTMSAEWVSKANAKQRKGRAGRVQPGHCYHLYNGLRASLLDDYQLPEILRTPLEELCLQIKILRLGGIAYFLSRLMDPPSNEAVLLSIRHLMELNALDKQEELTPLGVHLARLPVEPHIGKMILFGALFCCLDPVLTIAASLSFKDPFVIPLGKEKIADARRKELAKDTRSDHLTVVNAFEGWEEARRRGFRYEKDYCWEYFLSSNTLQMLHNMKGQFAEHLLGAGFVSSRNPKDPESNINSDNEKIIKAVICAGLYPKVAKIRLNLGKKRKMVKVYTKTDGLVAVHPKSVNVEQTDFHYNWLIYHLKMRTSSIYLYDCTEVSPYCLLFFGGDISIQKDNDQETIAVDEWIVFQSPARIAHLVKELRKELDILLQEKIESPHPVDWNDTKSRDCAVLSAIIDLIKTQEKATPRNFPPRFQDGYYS
Procedure: (§1)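 Competition-binding assay: HEK293-FT cell lysate (2.5 mg protein) pre-incubated 1 h at 4°C with free motif-containing RNA oligos (0 to 30 µM, 12 doses), then pulled down with the same 5'-amino-C6 RNA oligos immobilised on NHS-Sepharose beads (30 min, 4°C). Bound proteins were quantified by label-free LC-MS/MS and normalised to the water control. EC50 came from a four-parameter log-logistic fit; Kd = EC50 x depletion factor. Random/reversed control probes are dropped.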

ZCCHC8 = target: T2, ZCCHC8 (UniProt Q6NZY4)
T2 sequence: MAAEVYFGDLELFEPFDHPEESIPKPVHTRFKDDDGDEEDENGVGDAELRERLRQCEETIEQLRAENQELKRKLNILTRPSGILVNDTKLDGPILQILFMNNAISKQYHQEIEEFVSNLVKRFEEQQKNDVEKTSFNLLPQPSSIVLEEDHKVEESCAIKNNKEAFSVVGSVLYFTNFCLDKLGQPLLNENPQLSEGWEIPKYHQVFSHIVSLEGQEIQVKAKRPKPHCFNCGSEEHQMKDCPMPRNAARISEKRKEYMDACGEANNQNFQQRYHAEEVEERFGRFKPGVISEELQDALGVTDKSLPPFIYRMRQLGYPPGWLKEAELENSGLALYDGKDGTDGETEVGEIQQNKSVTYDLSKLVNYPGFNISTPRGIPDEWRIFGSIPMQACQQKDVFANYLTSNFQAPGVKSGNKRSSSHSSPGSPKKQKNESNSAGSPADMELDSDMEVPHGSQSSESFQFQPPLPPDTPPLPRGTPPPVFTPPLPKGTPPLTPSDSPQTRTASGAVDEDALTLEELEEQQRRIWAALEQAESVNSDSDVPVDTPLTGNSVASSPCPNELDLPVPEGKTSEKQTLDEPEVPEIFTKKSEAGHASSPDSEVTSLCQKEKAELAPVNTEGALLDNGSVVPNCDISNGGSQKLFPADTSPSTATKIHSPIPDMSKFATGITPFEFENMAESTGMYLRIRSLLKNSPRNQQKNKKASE
Procedure: as §1

DIS3L2 = target: T3, DIS3L2 (UniProt Q8IYB7)
T3 sequence: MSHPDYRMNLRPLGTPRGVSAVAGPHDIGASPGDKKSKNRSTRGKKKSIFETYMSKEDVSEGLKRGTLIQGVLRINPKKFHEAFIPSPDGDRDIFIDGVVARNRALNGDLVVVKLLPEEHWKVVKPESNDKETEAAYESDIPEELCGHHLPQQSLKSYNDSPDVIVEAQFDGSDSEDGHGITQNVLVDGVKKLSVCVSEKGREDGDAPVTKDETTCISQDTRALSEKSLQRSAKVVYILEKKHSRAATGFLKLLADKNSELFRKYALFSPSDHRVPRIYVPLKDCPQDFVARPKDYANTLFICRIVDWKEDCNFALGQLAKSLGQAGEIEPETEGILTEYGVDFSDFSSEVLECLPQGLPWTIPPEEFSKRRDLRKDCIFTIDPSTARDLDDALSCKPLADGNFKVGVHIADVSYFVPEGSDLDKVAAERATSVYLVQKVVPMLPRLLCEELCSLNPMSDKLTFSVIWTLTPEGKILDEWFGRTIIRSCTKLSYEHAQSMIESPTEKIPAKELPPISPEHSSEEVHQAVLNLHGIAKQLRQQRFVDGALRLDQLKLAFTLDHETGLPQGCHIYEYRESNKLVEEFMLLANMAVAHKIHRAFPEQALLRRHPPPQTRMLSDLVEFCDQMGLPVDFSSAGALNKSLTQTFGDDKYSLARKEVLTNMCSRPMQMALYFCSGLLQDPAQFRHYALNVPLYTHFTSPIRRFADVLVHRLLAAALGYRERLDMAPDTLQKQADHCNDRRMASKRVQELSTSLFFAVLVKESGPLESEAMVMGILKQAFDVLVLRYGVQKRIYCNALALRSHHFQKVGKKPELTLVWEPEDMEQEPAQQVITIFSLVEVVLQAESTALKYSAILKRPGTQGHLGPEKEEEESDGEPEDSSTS
Procedure: as §1

DHX9 = DHX9 (UniProt Q08211)
Procedure: as §1

Chain of DHX9 (Q08211 whole entry): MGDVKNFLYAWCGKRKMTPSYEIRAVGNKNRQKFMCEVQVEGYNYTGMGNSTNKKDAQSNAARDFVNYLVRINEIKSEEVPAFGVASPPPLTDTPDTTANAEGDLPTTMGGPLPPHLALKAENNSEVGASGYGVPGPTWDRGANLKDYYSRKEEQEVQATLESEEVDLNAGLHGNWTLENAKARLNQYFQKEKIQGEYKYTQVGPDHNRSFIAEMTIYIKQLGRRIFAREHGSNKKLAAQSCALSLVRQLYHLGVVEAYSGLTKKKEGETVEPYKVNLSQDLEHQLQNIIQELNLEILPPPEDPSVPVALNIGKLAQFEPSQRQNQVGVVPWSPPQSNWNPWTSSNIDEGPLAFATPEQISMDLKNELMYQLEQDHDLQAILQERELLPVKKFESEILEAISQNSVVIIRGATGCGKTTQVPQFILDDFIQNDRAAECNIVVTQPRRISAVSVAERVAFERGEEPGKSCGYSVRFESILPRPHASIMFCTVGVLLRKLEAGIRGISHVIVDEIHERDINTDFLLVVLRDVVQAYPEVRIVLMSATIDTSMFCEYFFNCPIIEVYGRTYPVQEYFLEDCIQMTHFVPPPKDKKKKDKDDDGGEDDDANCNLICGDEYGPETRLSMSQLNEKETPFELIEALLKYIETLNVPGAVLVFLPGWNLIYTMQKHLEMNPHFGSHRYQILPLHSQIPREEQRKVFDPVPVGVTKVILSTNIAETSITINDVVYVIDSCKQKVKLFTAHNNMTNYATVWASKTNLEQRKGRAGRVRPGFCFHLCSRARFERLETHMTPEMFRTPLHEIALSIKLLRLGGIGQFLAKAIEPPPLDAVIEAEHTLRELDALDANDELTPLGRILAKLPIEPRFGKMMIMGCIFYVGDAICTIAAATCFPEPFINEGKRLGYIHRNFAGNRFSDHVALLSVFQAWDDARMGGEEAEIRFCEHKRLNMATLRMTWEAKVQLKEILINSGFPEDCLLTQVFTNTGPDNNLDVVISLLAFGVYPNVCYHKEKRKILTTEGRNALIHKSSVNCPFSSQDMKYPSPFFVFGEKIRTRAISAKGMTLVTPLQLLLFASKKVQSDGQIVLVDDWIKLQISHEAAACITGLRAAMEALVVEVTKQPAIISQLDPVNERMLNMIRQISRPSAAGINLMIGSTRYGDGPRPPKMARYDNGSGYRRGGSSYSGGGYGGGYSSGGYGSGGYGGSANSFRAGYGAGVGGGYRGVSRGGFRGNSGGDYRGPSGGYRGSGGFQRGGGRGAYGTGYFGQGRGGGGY

| Sequence | EC50 (DHX36) [nM] | EC50 (ZCCHC8) [nM] | EC50 (DIS3L2) [nM] | EC50 (DHX9) [nM] |
| --- | --- | --- | --- | --- |
| AAUAAA | 3290 | 2460 | 1340 | 4050 |
| CUGUCCU | 5030 | 3110 | 1180 | 546 |
| UAUUUAU | 1010 | 615 | 376 | 1870 |
